Laboratory results from patent US20220184177A1 (SAINT JOSEPH S UNIVERSITY, published 2022).
Where no end group is shown, it is not given here. The star is where a group is joined. Biotin = O=C1N[C@H]2[C@H](CS[C@H]2CCCCC(=O)*)N1

T1: Estrogen Receptor α (UniProt P03372 1-595, limits assumed)
T1 construct: also called ERα; ERa
T1 sequence (looked up): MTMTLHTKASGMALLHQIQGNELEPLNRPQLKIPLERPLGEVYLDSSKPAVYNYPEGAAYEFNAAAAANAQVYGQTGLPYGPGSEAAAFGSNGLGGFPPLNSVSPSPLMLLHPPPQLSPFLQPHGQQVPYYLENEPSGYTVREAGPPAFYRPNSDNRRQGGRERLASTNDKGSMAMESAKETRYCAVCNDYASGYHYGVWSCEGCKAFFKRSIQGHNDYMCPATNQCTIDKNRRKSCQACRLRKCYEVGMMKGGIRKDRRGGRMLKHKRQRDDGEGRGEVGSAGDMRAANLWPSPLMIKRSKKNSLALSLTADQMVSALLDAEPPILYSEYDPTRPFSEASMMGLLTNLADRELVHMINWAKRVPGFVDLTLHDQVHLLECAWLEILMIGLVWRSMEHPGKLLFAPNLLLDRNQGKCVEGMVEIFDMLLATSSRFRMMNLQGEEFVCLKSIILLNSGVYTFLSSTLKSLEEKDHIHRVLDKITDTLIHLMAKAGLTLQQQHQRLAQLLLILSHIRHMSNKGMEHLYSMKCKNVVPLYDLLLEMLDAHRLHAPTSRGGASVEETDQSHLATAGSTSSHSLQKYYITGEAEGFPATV

B1: Recombinant Full-Length CAPER HCC1.3 (other)
chain: ADDIDIEAMLEAPYKKDENKLSSANGHEERSKKRKKSKSRSRSHERKRSKSKERKRSRDRERKKSKSRERKRSRSKERRRSRSRSRDRRFRGRYRSPYSGPKFNSAIRGKIGLPHSIKLSRRRSRSKSPFRKDKSPVREPIDNLTPEERDARTVFCMQLAARIRPRDLEEFFSTVGKVRDVRMISDRNSRRSKGIAYVEFVDVSSVPLAIGLTGQRVLGVPIIVQASQAEKNRAAAMANNLQKGSAGPMRLYVGSLHFNITEDMLRGIFEPFGRIESIQLMMDSETGRSKGYGFITFSDSECAKKALEQLNGFELAGRPMKVGHVTERTDASSASSFLDSDELERTGIDLGTTGRLQLMARLAEGTGLQIPPAAQQALQMSGSLAFGAVADLQTRLSQQTEASALAAAASVQPLATQCFQLSNMFNPQTEEEVGWDTEIKDDVIEECNKHGGVIHIYVDKNSAQGNVYVKCPSIAAAIAAVNALHGRWFAGKMITAAYVPLPTYHNLFPDSMTATQLLVPSRR
notes: Bought from R&D Systems; also called full-length recombinant CAPER; CAPER isoform HCC1.3
B2: CAPER peptide HCC1.4 (amino acid residues 356-400) (peptide)
peptide: Biotin-RLQLMARLAEGTGLQIPPAAQQALQMSGSLAFGAVAEFSFVIDLQ
notes: Custom synthesized (LifeTein), crude purity, N-terminal biotin
B3: CAPER peptide HCC1.3 (amino acid residues 356-400) (peptide)
peptide: Biotin-RLQLMARLAEGTGLQIPPAAQQALQMSGSLAFGAVADLQTRLSQQ
notes: Custom synthesized (LifeTein), crude purity, N-terminal biotin; A TAT control peptide was run alongside, so the TAT form is possible
B4: TAT Control Peptide (peptide)
peptide: Biotin-YGRKKRRQRRR
notes: Control peptide; also called TAT only control
B5: CAPER peptide Scrambled (peptide)
peptide: Biotin-VGDALQGLRLFSTQASIGAQMEQLAAQPLRAGQMLQLAQASPLRT
notes: Control peptide; also called CAPER Scrambled Peptide; CAPER scrambled peptide
B6: His-tagged recombinant c-Jun (other, UniProt P05412 1-331, looked up)
chain: MTAKMETTFYDDALNASFLPSESGPYGYSNPKILKQSMTLNLADPVGSLKPHLRAKNSDLLTSPDVGLLKLASPELERLIIQSSNGHITTTPTPTQFLCPKNVTDEQEGFAEGFVRALAELHSQNTLPSVTSAAQPVNGAGMVAPAVASVAGGSGSGGFSASLHSEPPVYANLSNFNPGALSSGGGAPSYGAAGLAFPAQPQQQQQPPHHLPQQMPVQHPRLQALKEEPQTVPEMPGETPPLSPIDMESQERIKAERKRMRNRIAASKCRKRKLERIARLEEKVKTLKAQNSELASTANMLREQVAQLKQKVMNHVNSGCQLMLTQQLQTF
notes: Captured on BLI tips by an anti-his tag antibody; also called c-Jun receptor; c-Jun component of AP-1; not shown: his tag

Assays:
Estrogen Receptor α = target: T1, Estrogen Receptor α; assay: binding kinetics on ERα (method not described, presumably BLI)
[1] = target: B6; assay: BLI (Octet), his-tagged c-Jun captured by anti-his antibody, 1:1 model
[2] = target: B6; assay: BLI, his-tagged c-Jun captured by anti-his antibody
[3] = target: B6; assay: BLI (Octet), His-tagged c-Jun captured on anti-His tips, peptide in solution
[4] = target: B1; assay: BLI (Octet), his-tagged c-Jun captured by anti-his antibody, 1:1 model

B1
Kd (Estrogen Receptor α): 0.02 nM
koff (Estrogen Receptor α): 2.34e-05 s⁻¹
kon (Estrogen Receptor α): 937000 M⁻¹ s⁻¹

B2
Kd (Estrogen Receptor α): 30.2 nM
koff (Estrogen Receptor α): 0.00172 s⁻¹
kon (Estrogen Receptor α): 57100 M⁻¹ s⁻¹
Kd [1]: 25.6 nM
koff [1]: 0.00098 s⁻¹
kon [1]: 38300 M⁻¹ s⁻¹

B3
Kd (Estrogen Receptor α): 4.5 nM
koff (Estrogen Receptor α): 0.000115 s⁻¹
kon (Estrogen Receptor α): 25400 M⁻¹ s⁻¹
Kd [1]: 8.89 nM
koff [1]: 0.000337 s⁻¹
kon [1]: 37900 M⁻¹ s⁻¹

B4
binding result [2]: no binding

B5
binding result [3]: no binding (tested: 1000 (no unit printed on the sheet))

B6
Kd [4]: 0.18 nM
koff [4]: 5.66e-05 s⁻¹
kon [4]: 312000 M⁻¹ s⁻¹
